# In the supplement of paper PMC9170038:
# Assays:
# [1] = test system: MS2 coat protein; test: apparent KD of MS2 coat protein, switch OFF state (with FMN for OFF switches, without FMN for ON switches); designed switch direction (-1 OFF switch, 1 ON switch): -1; higher = weaker reporter binding; details: FMN input: 0 or 200 uM; Eterna round: R93 (includes R88 designs)
# Procedure, shortened: (§1)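 Designed RNA switches were transcribed on-chip from Illumina sequencing clusters. They were then titrated with SNAP-549-labelled MS2 coat protein (twofold steps, 0.7 or 1.5 nM to 3 µM; 0.8–1.5 h to 10–20 min per step) in 100 mM Tris-HCl pH 7.5, 80 mM KCl, 4 mM MgCl2, without or with constant ligand. Apparent KD is the per-design median of normalised cluster binding-curve fits.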
# [2] = test system: MS2 coat protein; test: apparent KD of MS2 coat protein, switch ON state; designed switch direction (-1 OFF switch, 1 ON switch): -1; higher = weaker reporter binding; details: FMN input: 0 or 200 uM; Eterna round: R93 (includes R88 designs)
# Procedure, shortened: as §1
sequence,measurement,setting,value
"AGGAGACAUGAGGAUCACCCAUGUUAGGAUAUGAACGAAAAUAAAUAAAAAUAAAAGUUCAGAAGGAACGAAAA [66%, Wbt, 9]",apparent KD of MS2 coat protein,[1],45.2 nM
same,apparent KD of MS2 coat protein,[2],45.1 nM
AGGAUGUCAGGAUAUGUGUAAAGAAUAAAACAAAUAACAACACAGAAGGGACAUGAGGAUCACCCAUGUUAAGA [May 44],apparent KD of MS2 coat protein,[1],55.7 nM
same,apparent KD of MS2 coat protein,[2],36.8 nM
AGGGAACAUGAGGAUCACCCAUGUGAGGAUAUUGAAAAGAAAAGAAAAGAAAGAAGAACAAGAAGGUACAAGAA [Meryre Pepi I],apparent KD of MS2 coat protein,[1],24.8 nM
same,apparent KD of MS2 coat protein,[2],21.8 nM
AGUAGAUCAGGAUAUACGUGAAAGGUCAAAGUGUCACUUCUACAUGAGGAUCACCCAUGUAGAAGGGAUCUACA [Ex2 Design 122: Not so Super Stable 9],apparent KD of MS2 coat protein,[1],12.4 nM
same,apparent KD of MS2 coat protein,[2],12.9 nM
AGUAGUACAGGAUAUACAUGAGGAUCACCCAUGUGAAAAGAAAGUGGCGUACCACAAAGUAGAAGGGUACUACA [Mat - Exclusion 3 - JL mod - D34],apparent KD of MS2 coat protein,[1],152 nM
same,apparent KD of MS2 coat protein,[2],33.7 nM
AGUGAGUGAGGAUAUCACUGAAGAAUAAAAGAAAUAACGAGUGAGAAGGCACAUGAGGAUCACCCAUGUACACA [May 63],apparent KD of MS2 coat protein,[1],18.3 nM
same,apparent KD of MS2 coat protein,[2],24.1 nM
"AGUUGGCGAGGAUAUACAUGAGGAUCACCCAUGUGAAAUAAAUAAAAAAUAAAAGGGAGUAGAAGGCGCUGACA [73%, Moding Norbert Elias, 17]",apparent KD of MS2 coat protein,[1],82.3 nM
same,apparent KD of MS2 coat protein,[2],43.6 nM
AGUUGGCGAGGAUAUACAUGAGGAUCACCCAUGUGAAAUCGCGAAGAAAUAGGGAAAAGUAGAAGGCGCUGACA [Ruby 61],apparent KD of MS2 coat protein,[1],19.9 nM
same,apparent KD of MS2 coat protein,[2],11.6 nM
AGUUGGCGAGGAUAUACAUGAGGAUCACCCAUGUGAGAGAAAAAAAGAAGAAAAAAAAGUAGAAGGCGCUGACA [Mat - Exclusion 3 - Lego mod - D43],apparent KD of MS2 coat protein,[1],103 nM
same,apparent KD of MS2 coat protein,[2],44.2 nM
AUAAACUGAGGAUAUACAUGAGGAUCACCCAUGUAAAAAAAGAAAUGAUCCUCAGGAAGUAGAAGGCAGAAUAA [JR_Exc003_Sub017],apparent KD of MS2 coat protein,[1],28.3 nM
same,apparent KD of MS2 coat protein,[2],13.2 nM
AUAAAGAGAGGAUAUACAUGAGGAUCACCCAUGUAAGAAAUAAAAUAAAUAAAGGGAAGUAGAAGGCUCAAAUA [Denovo 2],apparent KD of MS2 coat protein,[1],42.5 nM
same,apparent KD of MS2 coat protein,[2],28 nM
AUAAAGUGAGGAUAUGUAAAAAUAACGAAAGUUAUAAAUAAACAGAAGGCACAUGAGGAUCACCCAUGUGAAAU [Meechl MS2 EX4 62% 2],apparent KD of MS2 coat protein,[1],22.5 nM
same,apparent KD of MS2 coat protein,[2],24.2 nM
AUCAUGUCAGGAUAUCAGUAGUAAAAAAAAAAAAUUACUACUGAGAAGGGACAUGAGGAUCACCCAUGUCCAAA [EX4 306: Super Stable 6],apparent KD of MS2 coat protein,[1],46.2 nM
same,apparent KD of MS2 coat protein,[2],32.1 nM
CAGGUACGAGGAUAUACAUAGAUACAGACACAUGUUCAAGUACAUGAGGAUCACCCAUGUAGAAGGCGUAUAUG [Mat - Same state - Mayanna Mod - D108],apparent KD of MS2 coat protein,[1],88.5 nM
same,apparent KD of MS2 coat protein,[2],47.6 nM
CAGUACUGAGGAUAUACAUGAGGAUCACCCAUGUAUCCAAGCUAGGAAACUAGCACAUGUAGAAGGCAGUACUG [Ex3: 822],apparent KD of MS2 coat protein,[1],34.5 nM
same,apparent KD of MS2 coat protein,[2],294 nM
CAGUACUGAGGAUAUACAUGAGGAUCACCCAUGUGAUCAAGCUACGAAAGUAGCAAAAGUAGAAGGCAGUACUG [Ex3: 810],apparent KD of MS2 coat protein,[1],56.7 nM
same,apparent KD of MS2 coat protein,[2],277 nM
CCGAGACAUGAGGAUCACCCAUGUGAGGAUAUAGGUGUAUGCAAAAAAAAGUUAAAAACUAGAAGGCACAGAGG [JR_Exc001_Sub307],apparent KD of MS2 coat protein,[1],30.9 nM
same,apparent KD of MS2 coat protein,[2],37 nM
CCUGAACAUGAGGAUCACCCAUGUGAGGAUAUGAUGCGAAUAAAGAAAGAAGAAAGCAUCAGAAGGCACAUAGG [Mod of Disincluded 3 v.4],apparent KD of MS2 coat protein,[1],43.4 nM
same,apparent KD of MS2 coat protein,[2],28 nM
CGCAAACAUGAGGAUCACCCAUGUGAGGAUAUGUGAGCACGAGAAAGAUAAAGUGAGCACAGAAGGCACAAGCG [JR_Exclusion1_Sub6],apparent KD of MS2 coat protein,[1],27.3 nM
same,apparent KD of MS2 coat protein,[2],34.8 nM
CGGGAGUCAGGAUAUACGAACAUGUCGCCAGAUGUCAAGGUACAUGAGGAUCACCCAUGUAGAAGGGAGGAGAG [salish99-Ex2-34],apparent KD of MS2 coat protein,[1],65 nM
same,apparent KD of MS2 coat protein,[2],80.8 nM
CUAGUACAUGAGGAUCACCCAUGUCAGGAUAUUGGAUAUGCCAUGGAAAACAUGUUUACAAGAAGGGACUAUAG [EX1 Malc#22],apparent KD of MS2 coat protein,[1],36.4 nM
same,apparent KD of MS2 coat protein,[2],32.9 nM
CUCAAGUAAGGAUAUGCAAGAAAAGAAGAGAAAGAAAAGAAGCAGAAGGUACAUGAGGAUCACCCAUGUAAGAA [EteRNA is fun!],apparent KD of MS2 coat protein,[1],35.8 nM
same,apparent KD of MS2 coat protein,[2],37.3 nM
CUCAAGUUAGGAUAUAGAAGAAAAGAAGAGAAAGAAAAGAACUAGAAGGAACAUGAGGAUCACCCAUGUAAGAA [EteRNA is fun!],apparent KD of MS2 coat protein,[1],20.5 nM
same,apparent KD of MS2 coat protein,[2],31.2 nM
CUCUAGUCAGGAUAUACAAGAAAAGAAGAGAAAGAAAAGAAGUAGAAGGGACAUGAGGAUCACCCAUGUAAGAA [EteRNA is fun!],apparent KD of MS2 coat protein,[1],48.2 nM
same,apparent KD of MS2 coat protein,[2],50.9 nM
CUCUAGUGAGGAUAUACAAGAAAAGAAAAGAAAGAAAAGAAGUAGAAGGCACAUGAGGAUCACCCAUGUAAGAA [EteRNA is fun!],apparent KD of MS2 coat protein,[1],30.2 nM
same,apparent KD of MS2 coat protein,[2],24.8 nM
CUCUAGUUAGGAUAUGGAAGAAAAGAAAAGAAAGAAAAGAACCAGAAGGAACAUGAGGAUCACCCAUGUAAGAA [EteRNA is fun!],apparent KD of MS2 coat protein,[1],34 nM
same,apparent KD of MS2 coat protein,[2],45.5 nM
CUUAUGUCAGGAUAUCAGUAGUAAAAAAAUAAAAUUACUACUGAGAAGGGACAUGAGGAUCACCCAUGUCAAAA [EX4 365: Super Stable 65],apparent KD of MS2 coat protein,[1],97.2 nM
same,apparent KD of MS2 coat protein,[2],164 nM
GAAAAACAUGAGGAUCACCCAUGUAAGGAUAUGCUAAAAAACACGGAAAAACGUGAUAGCAGAAGGUACAAAAG [Mat - Exclusion 1 - Eli mod - D88],apparent KD of MS2 coat protein,[1],44 nM
same,apparent KD of MS2 coat protein,[2],19.8 nM
GAAAAACAUGAGGAUCACCCAUGUCAGGAUAUCCAAAUAAAAAUAAAAUAAAAUAAAAGGAGAAGGGACAAAAG [Mat - Same state - Mayanna Mod - D101],apparent KD of MS2 coat protein,[1],40 nM
same,apparent KD of MS2 coat protein,[2],42.4 nM
GAAAAGGUAGGAUAUACGAAAAAAAAGGGUAAAAAAUAAAAACAUGAGGAUCACCCAUGUAGAAGGACCAAAAG [Mat - Exclusion 2 - Tesla mod - D40],apparent KD of MS2 coat protein,[1],55.3 nM
same,apparent KD of MS2 coat protein,[2],28.8 nM
